These results are taken from patent publication US20070014791A1, “Rage-related methods and copositions for treating glomerular injury” (priority 2003, published 2007).

Series [1] concerns male BALB/c mice. To be noted: ADR 10.5 mg/kg IV, up to 6 weeks; cited from earlier work.
Series [2] has as its system male BALB/c mice treated with adriamycin (ADR). Description: ADR-induced glomerular injury in BALB/c mice: kidney weight and mesangial morphometry (PAS staining). The class given is in vivo, mouse. To be noted: for kidney weight/body weight ratio: sRAGE 100 μg per day once daily, vs. PBS-treated mice; for mesangial area / mesangial/glomerular area: sRAGE 100 μg per day, compared with PBS treatment, PAS staining. The method, then:
(§1) Male BALB/c mice at the age of six weeks received one intravenous dose of adriamycin (ADR), 10.5 mg/kg. Immediately after injection of ADR, mice received once daily administration of murine soluble RAGE, the extracellular ligand binding domain of RAGE, 100 μg per day, beginning immediately at the time of ADR treatment, and continued until the day of sacrifice.
Dissected kidneys were fixed in buffered formalin (10%) overnight and then routinely processed for light microscopy. Fixed paraffin-embedded tissues were cut (3 μm thick) and mounted on slides coated with 3-aminopropyltriethoxy silane (Sigma) followed by incubation at 37° C. overnight. Light microscopic views after staining with periodic acid Schiff (PAS) were scanned into a computer and the quantification of areas of mesangial matrix and glomerulus was performed using a Zeiss microscope and image analysis system (MediaCybernetics). To calculate mesangial area, only nuclei-free regions were included. Forty glomeruli from each animal were selected at random on the stained sections (20 from the outer region and 20 from the inner region). Morphometry was performed by investigators blinded to the experimental protocol.
To address the concept that RAGE may be involved in the pathogenesis of ADR-mediated FSGS, a single injection of ADR, 10.5 mg/kg, to male BALB/c mice at age 6 weeks was administered. ADR-treated mice received once daily administration of murine soluble RAGE, the extracellular ligand binding domain of RAGE, 100 μg per day, beginning immediately at the time of ADR treatment, and continued until the day of sacrifice. Other ADR-treated mice received vehicle, PBS.

The test system is the same in series [3]. Description: ADR-induced albuminuria in BALB/c mice: 24 hr urine albumin/creatinine. The class given is in vivo, mouse. To be noted: sRAGE 100 μg per day, mean±SE. The method, then: as §1
Twenty-four hour urine collection was obtained from each animal using metabolic cages. Urine albumin and creatinine were determined using Albuwell M and creatinine assays from Exocell (Philadelphia, Pa.) according to the manufacturer's instructions.
The key test of these concepts was the degree to which blockade of RAGE would suppress the development of albuminuria. Mice were placed in metabolic cages and 24 hr urine collected. Urine levels of albumin and creatinine were determined; results are reported as μg albumin/μg creatinine. […] At six weeks, the results were similarly striking.

For `COc1cccc2c1C(=O)c1c(O)c3c(c(O)c1C2=O)C[C@@](O)(C(=O)CO)C[C@@H]3O[C@H]1C[C@H](N)[C@H](O)[C@H](C)O1` [ADR, adriamycin], in series [1], the “mice that developed hematuria” value is recorded as 35.7% and the “mice that developed leukocyturia” value was 53.6%.

B1: sRAGE: murine soluble RAGE, the extracellular ligand binding domain of RAGE (protein, UniProt Q62151 23-340, looked up)
extracellular domain: GQNITARIGEPLVLSCKGAPKKPPQQLEWKLNTGRTEAWKVLSPQGGPWDSVARILPNGSLLLPATGIVDEGTFRCRATNRRGKEVKSNYRVRVYQIPGKPEIVDPASELTASVPNKVGTCVSEGSYPAGTLSWHLDGKLLIPDGKETLVKEETRRHPETGLFTLRSELTVIPTQGGTHPTFSCSFSLGLPRRRPLNTAPIQLRVREPGPPEGIQLLVEPEGGIVAPGGTVTLTCAISAQPPPQVHWIKDGAPLPLAPSPVLLLPEVGHEDEGTYSCVATHPSHGPQESPPVSIRVTETGDEGPAEGSVGESGLGTLA
modifications: extracellular domain
Regarding B1, the “kidney weight/body weight ratio” value in series [2] (2 weeks after ADR 10.5 mg/kg) and in series [2] (6 weeks after ADR 10.5 mg/kg) was “significantly decreased” in each case. Also, the mesangial area result in series [2] (2 weeks after ADR) and in series [2] (6 weeks after ADR) was “significantly decreased” each time. The mesangial/glomerular area result in series [2] (2 weeks after ADR) and in series [2] (6 weeks after ADR) was “significantly decreased” each time. Also, the urine albumin/creatinine is reported as 191.08±49.93 μg albumin/μg creatinine in series [3] (2 weeks after ADR, p<0.05 vs. PBS-treated mice receiving ADR (809.55±365.85)) and 249.76±283.19 μg albumin/μg creatinine in series [3] (6 weeks after ADR, p<0.01 vs PBS/ADR (1,362.96±987.97)).
